These are literature values, as cited in patent US20100028328A1, “TOPICAL TREATMENT FOR DISEASES OF EYE SURFACE” (THERAKINE, LTD., priority 2006, published 2010).

In data set [1] the test system is Herpetic Stromal Keratitis (HSK), Herpes simplex virus infection of the cornea. The settings on record: treatment of HSK.
In data set [2] the test system is allogeneic corneal transplants. The following applies: topical treatment.

With IL-1 ra: receptor antagonist to IL-1, the “influx of cells of the innate and adaptive immune system into the cornea” value in data set [1] was “reduce the influx of cells of the innate and adaptive immune system into the cornea”.

B1: TNFR-I: a TNF antagonist; topical soluble tumor necrosis factor receptor type I (protein, UniProt P19438 30-211, looked up)
extracellular domain: LVPHLGDREKRDSVCPQGKYIHPQNNSICCTKCHKGTYLYNDCPGPGQDTDCRECESGSFTASENHLRHCLSCSKCRKEMGQVEISSCTVDRDTVCGCRKNQYRHYWSENLFQCFNCSLCLNGTVHLSCQEKQNTVCTCHAGFFLRENECVSCSNCKKSLECTKLCLPQIENVKGTEDSGTT
modifications: extracellular domain
For B1, in data set [2], the “acceptance of allogeneic corneal transplants” value is “promoted the acceptance of allogeneic corneal transplants” and the “gene expression of chemokines associated with corneal graft rejection (RANTES, macrophage inflammatory protein-1beta)” value is recorded as “inhibited gene expression of 2 chemokines”.
